Literature values in patent US20070032640A1, “Cytokine receptor” (priority 2001, published 2007).

Key:
[1] = system: gp130 signalling; settings: cited from earlier work; for Signalling: gp130 signalling of IL-6R mutant, relative to wild type
[2] = system: IL-6; settings: cited from earlier work; for Binding: IL-6 binding of IL-6R mutant, relative to wild type

Molecule | Binding [2] [%] | Signalling [1] | also measured
C192: IL-6R with C192 mutated to alanine (protein, UniProt P08887 20-468, looked up, variant C192A) Interleukin-6 receptor …: LAPRRCPAQEVARGVLTSLPGDSVTLTCPGVEPEDNATVHWVLRKPAAGSHPSRWAGMGRRLLLRSVQLHDSGNYSCYRAGRPAGTVHLLVDVPPEEPQLSCFRKSPLSNVVCEWGPRSTPSLTTKAVLLVRKFQNSPAEDFQEPCQYSQESQKFSCQLAVPEGDSSFYIVSMCVASSVGSKFSKTQTFQGAGILQPDPPANITVTAVARNPRWLSVTWQDPHSWNSSFYRLRFELRYRAERSKTFTTWMVKDLQHHCVIHDAWSGLRHVVQLRAQEEFGQGEWSEWSPEAMGTPWTESRSPPAENEVSTPMQALTTNKDDDNILFRDSANATSLPVQDSSSVPLPTFLVAGGSLAFGTLLCIAIVLRFKKTWKLRALKEGKTSMHPPYSLGQLVPERPRPTPVLVPLISPPVSPSSLGSDNTSSHNRPDARDPRSPYDISNTDYFFPR | – | – | signalling (in words) ([1]; mutated to alanine): slightly increased; binding of IL-6 to IL-6R (in words) ([2]; mutated to alanine): slightly increased
E278: IL-6R EF-AI double mutant at E278 and F279 (protein, UniProt P08887 20-468, looked up, variant E278A F279I) Interleukin-6 receptor …: LAPRRCPAQEVARGVLTSLPGDSVTLTCPGVEPEDNATVHWVLRKPAAGSHPSRWAGMGRRLLLRSVQLHDSGNYSCYRAGRPAGTVHLLVDVPPEEPQLSCFRKSPLSNVVCEWGPRSTPSLTTKAVLLVRKFQNSPAEDFQEPCQYSQESQKFSCQLAVPEGDSSFYIVSMCVASSVGSKFSKTQTFQGCGILQPDPPANITVTAVARNPRWLSVTWQDPHSWNSSFYRLRFELRYRAERSKTFTTWMVKDLQHHCVIHDAWSGLRHVVQLRAQEAIGQGEWSEWSPEAMGTPWTESRSPPAENEVSTPMQALTTNKDDDNILFRDSANATSLPVQDSSSVPLPTFLVAGGSLAFGTLLCIAIVLRFKKTWKLRALKEGKTSMHPPYSLGQLVPERPRPTPVLVPLISPPVSPSSLGSDNTSSHNRPDARDPRSPYDISNTDYFFPR | 0 | – | –
F-Y mutant: IL-6R F-Y mutant at F168 (protein, UniProt P08887 20-468, looked up, variant F168Y) Interleukin-6 receptor …: LAPRRCPAQEVARGVLTSLPGDSVTLTCPGVEPEDNATVHWVLRKPAAGSHPSRWAGMGRRLLLRSVQLHDSGNYSCYRAGRPAGTVHLLVDVPPEEPQLSCFRKSPLSNVVCEWGPRSTPSLTTKAVLLVRKFQNSPAEDFQEPCQYSQESQKFSCQLAVPEGDSSYYIVSMCVASSVGSKFSKTQTFQGCGILQPDPPANITVTAVARNPRWLSVTWQDPHSWNSSFYRLRFELRYRAERSKTFTTWMVKDLQHHCVIHDAWSGLRHVVQLRAQEEFGQGEWSEWSPEAMGTPWTESRSPPAENEVSTPMQALTTNKDDDNILFRDSANATSLPVQDSSSVPLPTFLVAGGSLAFGTLLCIAIVLRFKKTWKLRALKEGKTSMHPPYSLGQLVPERPRPTPVLVPLISPPVSPSSLGSDNTSSHNRPDARDPRSPYDISNTDYFFPR | – | mutant signals at 50% | –
F134: IL-6R F-L mutation at F134 (protein, UniProt P08887 20-468, looked up, variant F134L) Interleukin-6 receptor …: LAPRRCPAQEVARGVLTSLPGDSVTLTCPGVEPEDNATVHWVLRKPAAGSHPSRWAGMGRRLLLRSVQLHDSGNYSCYRAGRPAGTVHLLVDVPPEEPQLSCFRKSPLSNVVCEWGPRSTPSLTTKAVLLVRKLQNSPAEDFQEPCQYSQESQKFSCQLAVPEGDSSFYIVSMCVASSVGSKFSKTQTFQGCGILQPDPPANITVTAVARNPRWLSVTWQDPHSWNSSFYRLRFELRYRAERSKTFTTWMVKDLQHHCVIHDAWSGLRHVVQLRAQEEFGQGEWSEWSPEAMGTPWTESRSPPAENEVSTPMQALTTNKDDDNILFRDSANATSLPVQDSSSVPLPTFLVAGGSLAFGTLLCIAIVLRFKKTWKLRALKEGKTSMHPPYSLGQLVPERPRPTPVLVPLISPPVSPSSLGSDNTSSHNRPDARDPRSPYDISNTDYFFPR | >100 | 70% | –
P162: IL-6R PE-LQ double mutant at P162 and E163, loop L3 (protein, UniProt P08887 20-468, looked up, variant P162L E163Q) Interleukin-6 receptor …: LAPRRCPAQEVARGVLTSLPGDSVTLTCPGVEPEDNATVHWVLRKPAAGSHPSRWAGMGRRLLLRSVQLHDSGNYSCYRAGRPAGTVHLLVDVPPEEPQLSCFRKSPLSNVVCEWGPRSTPSLTTKAVLLVRKFQNSPAEDFQEPCQYSQESQKFSCQLAVLQGDSSFYIVSMCVASSVGSKFSKTQTFQGCGILQPDPPANITVTAVARNPRWLSVTWQDPHSWNSSFYRLRFELRYRAERSKTFTTWMVKDLQHHCVIHDAWSGLRHVVQLRAQEEFGQGEWSEWSPEAMGTPWTESRSPPAENEVSTPMQALTTNKDDDNILFRDSANATSLPVQDSSSVPLPTFLVAGGSLAFGTLLCIAIVLRFKKTWKLRALKEGKTSMHPPYSLGQLVPERPRPTPVLVPLISPPVSPSSLGSDNTSSHNRPDARDPRSPYDISNTDYFFPR | <10 | – | –
I260: IL-6R I-D mutation at I260 (protein, UniProt P08887 20-468, looked up, variant I260D) Interleukin-6 receptor …: LAPRRCPAQEVARGVLTSLPGDSVTLTCPGVEPEDNATVHWVLRKPAAGSHPSRWAGMGRRLLLRSVQLHDSGNYSCYRAGRPAGTVHLLVDVPPEEPQLSCFRKSPLSNVVCEWGPRSTPSLTTKAVLLVRKFQNSPAEDFQEPCQYSQESQKFSCQLAVPEGDSSFYIVSMCVASSVGSKFSKTQTFQGCGILQPDPPANITVTAVARNPRWLSVTWQDPHSWNSSFYRLRFELRYRAERSKTFTTWMVKDLQHHCVDHDAWSGLRHVVQLRAQEEFGQGEWSEWSPEAMGTPWTESRSPPAENEVSTPMQALTTNKDDDNILFRDSANATSLPVQDSSSVPLPTFLVAGGSLAFGTLLCIAIVLRFKKTWKLRALKEGKTSMHPPYSLGQLVPERPRPTPVLVPLISPPVSPSSLGSDNTSSHNRPDARDPRSPYDISNTDYFFPR | 0 | – | –
W214: IL-6R W-Q mutant at W214 (protein, UniProt P08887 20-468, looked up, variant W214Q) Interleukin-6 receptor …: LAPRRCPAQEVARGVLTSLPGDSVTLTCPGVEPEDNATVHWVLRKPAAGSHPSRWAGMGRRLLLRSVQLHDSGNYSCYRAGRPAGTVHLLVDVPPEEPQLSCFRKSPLSNVVCEWGPRSTPSLTTKAVLLVRKFQNSPAEDFQEPCQYSQESQKFSCQLAVPEGDSSFYIVSMCVASSVGSKFSKTQTFQGCGILQPDPPANITVTAVARNPRQLSVTWQDPHSWNSSFYRLRFELRYRAERSKTFTTWMVKDLQHHCVIHDAWSGLRHVVQLRAQEEFGQGEWSEWSPEAMGTPWTESRSPPAENEVSTPMQALTTNKDDDNILFRDSANATSLPVQDSSSVPLPTFLVAGGSLAFGTLLCIAIVLRFKKTWKLRALKEGKTSMHPPYSLGQLVPERPRPTPVLVPLISPPVSPSSLGSDNTSSHNRPDARDPRSPYDISNTDYFFPR | 70 | >150% | –
R231: IL-6R RL-SI double mutant at R231 and L232 (protein, UniProt P08887 20-468, looked up, variant R231S L232I) Interleukin-6 receptor …: LAPRRCPAQEVARGVLTSLPGDSVTLTCPGVEPEDNATVHWVLRKPAAGSHPSRWAGMGRRLLLRSVQLHDSGNYSCYRAGRPAGTVHLLVDVPPEEPQLSCFRKSPLSNVVCEWGPRSTPSLTTKAVLLVRKFQNSPAEDFQEPCQYSQESQKFSCQLAVPEGDSSFYIVSMCVASSVGSKFSKTQTFQGCGILQPDPPANITVTAVARNPRWLSVTWQDPHSWNSSFYSIRFELRYRAERSKTFTTWMVKDLQHHCVIHDAWSGLRHVVQLRAQEEFGQGEWSEWSPEAMGTPWTESRSPPAENEVSTPMQALTTNKDDDNILFRDSANATSLPVQDSSSVPLPTFLVAGGSLAFGTLLCIAIVLRFKKTWKLRALKEGKTSMHPPYSLGQLVPERPRPTPVLVPLISPPVSPSSLGSDNTSSHNRPDARDPRSPYDISNTDYFFPR | 0 | – | –
